Legend:
Test in all cases: BLI
[1] = target: WRAIR-5021 (rhesus macaque)
[2] = target: WRAIR-5004 (rhesus macaque)
[3] = target: WRAIR-5011 (rhesus macaque)
[4] = target: WRAIR-5020 (rhesus macaque)
Sequence of WRAIR-5020 (rhesus macaque) (VH, as listed by the source, chain 1 of 2): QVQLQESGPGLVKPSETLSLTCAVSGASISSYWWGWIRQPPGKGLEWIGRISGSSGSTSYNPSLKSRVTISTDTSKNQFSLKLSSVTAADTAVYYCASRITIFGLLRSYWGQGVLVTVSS
Sequence of WRAIR-5020 (rhesus macaque) (VL, as listed by the source, chain 2 of 2): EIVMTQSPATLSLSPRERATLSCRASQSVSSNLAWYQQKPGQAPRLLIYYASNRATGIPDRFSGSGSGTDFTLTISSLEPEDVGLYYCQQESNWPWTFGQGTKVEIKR

Sequence of WRAIR-5021 (rhesus macaque) (VH, as listed by the source, chain 1 of 2): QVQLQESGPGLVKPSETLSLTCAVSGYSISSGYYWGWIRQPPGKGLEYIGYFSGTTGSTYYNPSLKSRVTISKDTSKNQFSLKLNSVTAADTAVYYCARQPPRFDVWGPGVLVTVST
Sequence of WRAIR-5021 (rhesus macaque) (VL, as listed by the source, chain 2 of 2): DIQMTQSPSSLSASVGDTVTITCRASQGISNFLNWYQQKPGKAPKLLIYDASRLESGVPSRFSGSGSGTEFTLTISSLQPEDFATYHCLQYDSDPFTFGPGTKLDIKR
Sequence of WRAIR-5011 (rhesus macaque) (VH, as listed by the source, chain 1 of 2): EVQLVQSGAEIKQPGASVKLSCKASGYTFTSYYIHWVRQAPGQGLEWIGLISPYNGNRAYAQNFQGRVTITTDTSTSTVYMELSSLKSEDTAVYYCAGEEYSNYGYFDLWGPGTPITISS
Sequence of WRAIR-5011 (rhesus macaque) (VL, as listed by the source, chain 2 of 2): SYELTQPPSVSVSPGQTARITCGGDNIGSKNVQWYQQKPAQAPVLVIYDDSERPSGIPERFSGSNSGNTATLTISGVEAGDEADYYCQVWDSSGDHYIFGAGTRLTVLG
Sequence of WRAIR-5004 (rhesus macaque) (VH, as listed by the source, chain 1 of 2): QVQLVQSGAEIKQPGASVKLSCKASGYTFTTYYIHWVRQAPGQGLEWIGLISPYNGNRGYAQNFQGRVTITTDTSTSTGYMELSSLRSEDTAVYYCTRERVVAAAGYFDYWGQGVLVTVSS
Sequence of WRAIR-5004 (rhesus macaque) (VL, as listed by the source, chain 2 of 2): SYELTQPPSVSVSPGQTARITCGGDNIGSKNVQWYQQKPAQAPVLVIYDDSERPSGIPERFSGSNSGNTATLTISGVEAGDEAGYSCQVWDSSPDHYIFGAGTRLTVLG

Substance: SARS-CoV-2 Delta RBD (from UniProt P0DTC2 331-527) (domain or fragment)
- Kd [1]: 3.62 nM
- Kd [2]: 2.44 nM
- Kd [3]: 0.48 nM
- Kd [4]: 108 nM
